In patent US20210070807A1 (MOREHOUSE SCHOOL OF MEDICINE, published 2021):

Molecular target: mortalin (UniProt P38646 47-679)
Assay: cell-based or functional assay

Sequence of mortalin (P38646 47-679 limits assumed): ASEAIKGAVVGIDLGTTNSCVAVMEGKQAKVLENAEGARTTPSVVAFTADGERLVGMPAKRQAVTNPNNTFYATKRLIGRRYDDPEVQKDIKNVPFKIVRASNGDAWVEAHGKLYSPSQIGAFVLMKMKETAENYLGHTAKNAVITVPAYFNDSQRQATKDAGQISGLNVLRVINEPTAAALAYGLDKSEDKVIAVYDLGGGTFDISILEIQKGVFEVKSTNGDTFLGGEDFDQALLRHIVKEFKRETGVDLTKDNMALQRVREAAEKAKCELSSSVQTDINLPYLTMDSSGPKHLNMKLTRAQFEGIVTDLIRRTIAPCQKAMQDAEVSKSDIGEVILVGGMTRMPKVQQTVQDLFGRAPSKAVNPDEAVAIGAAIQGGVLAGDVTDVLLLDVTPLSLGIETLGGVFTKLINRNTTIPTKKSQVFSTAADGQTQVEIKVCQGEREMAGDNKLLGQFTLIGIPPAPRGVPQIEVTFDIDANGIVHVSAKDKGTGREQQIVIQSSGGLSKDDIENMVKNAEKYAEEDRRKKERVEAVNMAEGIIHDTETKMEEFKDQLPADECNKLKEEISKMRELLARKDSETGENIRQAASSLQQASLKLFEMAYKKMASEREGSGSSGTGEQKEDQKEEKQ

VGFPVAAVGFPVGRKKRRQRRRPPQ [SMRwt-CPP peptide]
IC50 of proliferation, MTT assay, K562 cells, 24 hours: 907 nM/mL
IC50 of proliferation, MTT assay, MCF-7 cells, 24 hours: 180 nM/mL
IC50 of proliferation, MTT assay, MDA-MB-231 cells, 24 hours: 476 nM/mL
